Non-standard residues stand in square brackets, D forms with d. Residues, ends and D or L forms follow the SMILES beside them. No end group written: not given here. Lys(Me3) = C[N+](C)(C)CCCC[C@H](N)C(=O)O

By Kd is commonly meant the free concentration of one partner at which half of the binding sites on the other are occupied at equilibrium, for simple one-to-one binding.

For assay [1], the target named is BAF45c (residues 254–368), PHD1-2 region of DPF3 (Homo sapiens, UniProt Q92784). Description: Isothermal titration calorimetry of H3 tail peptides with DPF3. The class given is binding. On the technique in general: Isothermal titration calorimetry measures the heat released or taken up as one component is titrated into another.
Chain of BAF45c (residues 254–368), PHD1-2 region of DPF3 (Q92784 254-368): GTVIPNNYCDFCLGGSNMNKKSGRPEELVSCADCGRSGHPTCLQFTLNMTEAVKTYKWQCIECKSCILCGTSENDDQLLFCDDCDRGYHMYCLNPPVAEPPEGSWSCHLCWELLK
The target of assay [2] is PHD1-2 region of human BAF45c (DPF3), residues 254–368 (human) (UniProt Q92784). Nature of the assay: ITC.
Chain of PHD1-2 region of human BAF45c (DPF3), residues 254–368 (human) (Q92784 254-368): as above

ARTKQTRARKSTGGK(Ac)APRK [H3K4me0/K14ac]: binding in assay [1] was characterised by a dissociation constant (Kd) of 7.8 µM.

In the case of “H3K4me1K14Ac peptide (H3 tail, H3K4me1 and H3K14ac)”, in assay [2], the Kd is 20 µM. This counts as double-digit micromolar.

For “H3K4me3K14Ac peptide (H3 tail, H3K4me3 and H3K14ac)”, the Kd in assay [2] stood at 115 µM.

`CC(=O)NCCCC[C@H](NC(=O)CNC(=O)CNC(=O)[C@@H](NC(=O)[C@H](CO)NC(=O)[C@H](CCCCN)NC(=O)[C@H](CCCNC(=N)N)NC(=O)[C@H](C)NC(=O)[C@H](CCCNC(=N)N)NC(=O)[C@@H](NC(=O)[C@H](CCC(N)=O)NC(=O)[C@H](CCCC[N+](C)(C)C)NC(=O)[C@@H](NC(=O)[C@H](CCCNC(=N)N)NC(=O)[C@H](C)N)[C@@H](C)O)[C@@H](C)O)[C@@H](C)O)C(=O)N[C@@H](C)C(=O)N1CCC[C@H]1C(=O)N[C@@H](CCCNC(=N)N)C(=O)N[C@@H](CCCCN)C(=O)O` [H3K4me3/K14ac] (H-ART[Lys(Me3)]QTRARKSTGGK(Ac)APRK-OH) showed a Kd in assay [1] of 115 µM.

Compound “H3K14Ac peptide (H3 tail, H3K4me0 and H3K14ac)” gave a dissociation constant Kd in assay [2] of 7.8 µM.

These data come from PMC6007000 (Nature genetics, 2017).
